This is an account of results in the supplement of paper PMC9170038.

For series [1], the system named is MS2 coat protein. Description: apparent KD of MS2 coat protein, switch ON state; designed switch direction (-1 OFF switch, 1 ON switch): -1; higher = weaker reporter binding. Conditions: FMN input: 0 or 200 uM; Eterna round: R93 (includes R88 designs). In a few lines: (§1)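 Designed RNA switches were transcribed on-chip from Illumina sequencing clusters. SNAP-549-labelled MS2 coat protein was titrated onto them in twofold steps from 0.7 or 1.5 nM to 3 µM in 100 mM Tris-HCl pH 7.5, 80 mM KCl, 4 mM MgCl2, either without or with constant ligand. Apparent KD reflects the per-design median of normalised cluster binding-curve fits.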

Series [2] has as its system MS2 coat protein. Kind of series: apparent KD of MS2 coat protein, switch OFF state (with FMN for OFF switches, without FMN for ON switches); designed switch direction (-1 OFF switch, 1 ON switch): -1; higher = weaker reporter binding. To be noted: FMN input: 0 or 200 uM; Eterna round: R93 (includes R88 designs). In a few lines: as §1

With “AACAGGUCAGGAUAUGUGGAAAAAAUAAAAAAAAUAAAAACACAGAAGGGACAUGAGGAUCACCCAUGUAUAUA [May 21]”, the “apparent KD of MS2 coat protein” value with MS2 coat protein [1] worked out at 89.4 nM; in the series on MS2 coat protein [2], 53.4 nM.

As for “AACAGUACAGGAUAUACAUGAGGAUCACCCAUGUAAAAAUAAAAGGGCGUACCACAAAGUAGAAGGGUACUGGA [Moding Maslow revisited (73) 12]”, the figures for the “apparent KD of MS2 coat protein” value in the series on MS2 coat protein [1] and with MS2 coat protein [2] were 44.7 nM and 34 nM, respectively.

For the sequence “AACAGUACAGGAUAUACAUGAGGAUCACCCAUGUAAAAUAAAUAAAAAUAAAAGGGAAGUAGAAGGGUACUGGA [Moding Maslow revisited (73) 17]”, the “apparent KD of MS2 coat protein” value with MS2 coat protein [1] came to 31.6 nM; with MS2 coat protein [2], 46.5 nM.

As for “AACAGUACAGGAUAUACAUGAGGAUCACCCAUGUCAGAAUUAAGCAGCGUAACACAAAGUAGAAGGGUAAUGGA [Ruby 18]”, the “apparent KD of MS2 coat protein” value came to 46 nM with MS2 coat protein [1] and 41.1 nM in the series on MS2 coat protein [2].

Regarding “AACAGUACAGGAUAUACAUGAGGAUCACCCAUGUGAGAAUUAAGUGGAGGACCACAAAGUAGAAGGGUACUGAA [Mat - Exclusion 3 - JL mod - D9]”, the “apparent KD of MS2 coat protein” value in the series on MS2 coat protein [1] is 56.9 nM; with MS2 coat protein [2], 109 nM.

For the sequence “AACAGUACAGGAUAUACAUGAGGAUCACCCAUGUGAGAAUUAAGUGGCGUACCACAAAGUAGAAGGGUACUGGA [JL Maslow Revisted mod 16]”, the “apparent KD of MS2 coat protein” value came out at 35 nM with MS2 coat protein [1] and 173 nM with MS2 coat protein [2].

As for “AACAGUACAGGAUAUACAUGAGGAUCACCCAUGUGAGAAUUAAGUGGCGUACCACAAAGUAGAAGGGUACUGGA [Maslow Revisited]”, the “apparent KD of MS2 coat protein” value in the series with MS2 coat protein [1] stood at 35 nM; with MS2 coat protein [2], 173 nM.

In the case of “AACAGUACAGGAUAUACAUGAGGAUCACCCAUGUGGGAAUUAAGUGGCGUACCACAAUGUAGAAGGGUACUGGA [JL In the Red]”, the “apparent KD of MS2 coat protein” value in the series with MS2 coat protein [1] was 129 nM; with MS2 coat protein [2], 228 nM.

For the sequence “AACAGUACAGGAUAUACAUGAGGAUCACCCAUGUGGGUAAAAAGAUCGAGAGAUCAAUGUAGAAGGGUACUGGA [JL In the Red 04]”, the results for the “apparent KD of MS2 coat protein” value in the series with MS2 coat protein [1] and in the series with MS2 coat protein [2] were 259 nM and 104 nM, respectively.

In the case of “AACAUACAUGAGGAUCACCCAUGUCAGGAUAUGCCGGGUUAGAAAAAAAAAAAAAAACGUAGAAGGGACAAAAA [Bilbo Confounded 3 - Jieux - Exclusion 1]”, the figures for the “apparent KD of MS2 coat protein” value in the series on MS2 coat protein [1] and with MS2 coat protein [2] were 62.4 nM and 62.2 nM, respectively.

On to “AACAUGUAAGGAUAUUGAAGAAAAGAAAAGAAAGAAAAGAACAAGAAGGUACAUGAGGAUCACCCAUGUAAGAA [EteRNA is fun!]”, for which the “apparent KD of MS2 coat protein” value came out at 33.7 nM with MS2 coat protein [1] and 18.6 nM in the series on MS2 coat protein [2].

As to “AACAUGUCAGGAUAUAAAAGAAAAGAAAAGAAAGAAAAGAAUUAGAAGGGACAUGAGGAUCACCCAUGUAAGAA [EteRNA is fun!]”, the entries for the “apparent KD of MS2 coat protein” value with MS2 coat protein [1] and with MS2 coat protein [2] were 33 nM and 28.9 nM, respectively.

As for “AACUGACAUGAGGAUCACCCAUGUCAGGAUAUGACAUCGAAAAAUAAAUAAAUCGUUGUCAGAAGGGACAUGGA [Design 74: Sub-opt RB]”, the figures for the “apparent KD of MS2 coat protein” value in the series with MS2 coat protein [1] and in the series on MS2 coat protein [2] were 25.1 nM and 38 nM, respectively.

“AACUGACAUGAGGAUCACCCAUGUCAGGAUAUGCUUAAUAAAAAAAAAAAAAAAUGAUGCAGAAGGGAUAUGGG [Amethyst 56]”: the “apparent KD of MS2 coat protein” value turned out to be 23.7 nM with MS2 coat protein [1] and 18.9 nM in the series on MS2 coat protein [2].

For “AACUGACAUGAGGAUCACCCAUGUCAGGAUAUGCUUCAUAAAAAAAAAAAAAAAUGAUGCAGAAGGGACAUGAA [Design 25 :P Sub-opt 1]”, the “apparent KD of MS2 coat protein” value came out at 13 nM in the series with MS2 coat protein [1] and 14.1 nM in the series with MS2 coat protein [2].

On to “AACUGUACAGGAUAUACAUGAGGAUCACCCAUGUGAGAAUUAAGUGGAAAACCACAAAGUAGAAGGGUACAGGA [Mat - Exclusion 3 - JL mod - D18]”, for which the results for the “apparent KD of MS2 coat protein” value in the series on MS2 coat protein [1] and in the series with MS2 coat protein [2] were 27.6 nM and 136 nM, respectively.

“AACUGUACAGGAUAUACAUGAGGAUCACCCAUGUGAGAAUUAAGUGGAGAACCACAAAGUAGAAGGGUACAGGA [Mat - Exclusion 3 - JL mod - D17]”: the “apparent KD of MS2 coat protein” value in the series with MS2 coat protein [1] came out at 45.7 nM; in the series with MS2 coat protein [2], 218 nM.

For the sequence “AAGAAACAUGAGGAUCACCCAUGUCAGGAUAUCGAAGAAAGAAAGAAAGAAAGAAGAACGAGAAGGGACAAAGG [Gaius Iulius Aquila]”, the entries for the “apparent KD of MS2 coat protein” value in the series with MS2 coat protein [1] and in the series on MS2 coat protein [2] were 44.4 nM and 60.4 nM, respectively.

With “AAGAAACGAGGAUAUACAUGAGGAUCACCCAUGUAAAAGAAAGAAAAGGGAAAGAAAAGUAGAAGGCGUAAGAA [Usermaatre-sekheperenre Ramesses V]”, the “apparent KD of MS2 coat protein” value stood at 30.4 nM with MS2 coat protein [1] and 37 nM in the series with MS2 coat protein [2].

With “AAGAACAAAGGAUAUACAAGGAAGAAAGAAAAGAAAAGAAAACAUGAGGAUCACCCAUGUAGAAGGUUGUAGAA [EteRNA is fun!]”, the “apparent KD of MS2 coat protein” value came to 24.7 nM in the series with MS2 coat protein [1] and 20.7 nM in the series on MS2 coat protein [2].

With “AAGAACACAGGAUAUACAUGAGGAUCACCCAUGUAAAAGAAAGAAGGGAAAGAGAAAAGUAGAAGGGUGAAGAA [Ker]”, the “apparent KD of MS2 coat protein” value is 33.1 nM with MS2 coat protein [1] and 36.6 nM with MS2 coat protein [2].

On to “AAGAACAGAGGAUAUACAAAAUAAAAGAAAAGAAAGAAAGAACAUGAGGAUCACCCAUGUAGAAGGCUGAAGAA [Sonbef]”, for which the “apparent KD of MS2 coat protein” value with MS2 coat protein [1] stood at 28.2 nM; in the series with MS2 coat protein [2], 24.1 nM.

In the case of “AAGAACAGAGGAUAUACAUGAGGAUCACCCAUGUAAAAGAAAGAGGGAAAAGAGAAAAGUAGAAGGCUGAAGAA [Arsinoe III]”, the “apparent KD of MS2 coat protein” value amounted to 26.9 nM with MS2 coat protein [1] and 31 nM with MS2 coat protein [2].

As for “AAGAACCGAGGAUAUACAUGAGGAUCACCCAUGUAAAAGAAAGAGGGAAAAGAGAAAAGUAGAAGGCGGAAGAA [Berenice I]”, the “apparent KD of MS2 coat protein” value in the series with MS2 coat protein [1] amounted to 26.2 nM; in the series with MS2 coat protein [2], 57.4 nM.

Take “AAGAACGGAGGAUAUACAUGAGGAUCACCCAUGUAAAAGAAAGAAAAGGGAAAGAAAAGUAGAAGGCCGAAGAA [Djeserkare Amenhotep I]”: the “apparent KD of MS2 coat protein” value with MS2 coat protein [1] is 39.8 nM; in the series on MS2 coat protein [2], 51.3 nM.

Regarding “AAGAAGAGAGGAUAUACAAAAUAAAAGAAAAGAAAGAAAGAACAUGAGGAUCACCCAUGUAGAAGGCUCAAGAA [Hotepibre Qemau Siharnedjheritef]”, the “apparent KD of MS2 coat protein” value in the series with MS2 coat protein [1] was determined as 25.6 nM; in the series with MS2 coat protein [2] it was 28.4 nM.

With “AAGAAGGUAGGAUAUACUAGGGCAACUAAUGCAAAGAUAAAACAUGAGGAUCACCCAUGUAGAAGGGCCAGAAA [JR_Exc002_Sub401]”, the “apparent KD of MS2 coat protein” value in the series on MS2 coat protein [1] was determined as 33.8 nM; in the series on MS2 coat protein [2], 35.4 nM.

As for “AAGAAGUAAGGAUAUCGUGCUCGUCACAAAAGUGAUGAGUACGAGAAGGUACAUGAGGAUCACCCAUGUAAAGA [Opal 35]”, the “apparent KD of MS2 coat protein” value was 24.6 nM in the series with MS2 coat protein [1] and 21.9 nM in the series on MS2 coat protein [2].

For the sequence “AAGAAGUAAGGAUAUGCUGCUCGUCACAAAAGUGAUGAGUAGCAGAAGGUACAUGAGGAUCACCCAUGUUAAGA [JL eternac mod 4]”, the “apparent KD of MS2 coat protein” value in the series on MS2 coat protein [1] worked out at 24.4 nM; in the series with MS2 coat protein [2], 20.6 nM.

In the case of “AAGAAGUCAGGAUAUCGAAAAGAAAAGAAAAGAAAAGAAAACGAGAAGGGACAUGAGGAUCACCCAUGUAAGAA [Smerdis]”, the “apparent KD of MS2 coat protein” value in the series with MS2 coat protein [1] amounted to 46.5 nM; with MS2 coat protein [2], 25.7 nM.

For the sequence “AAGAAGUCAGGAUAUGCUGCUCGUCACUUGCGUGAUGAGUAGCAGAAGGGACAUGAGGAUCACCCAUGUAAAGA [Exclusion4-cac2]”, the “apparent KD of MS2 coat protein” value in the series on MS2 coat protein [1] turned out to be 50.7 nM; in the series on MS2 coat protein [2], 65.6 nM.

“AAGAAGUCAGGAUAUGCUGCUCGUCACUUGCGUGAUGAGUAGCAGAAGGGACAUGAGGAUCACCCAUGUAAAGA [Opal 14]”: the “apparent KD of MS2 coat protein” value with MS2 coat protein [1] is 50.7 nM; with MS2 coat protein [2], 65.6 nM.

Consider “AAGAAGUGAGGAUAUCGAAGACUGUCGAAAAGACAGUCGAACGAGAAGGCACAUGAGGAUCACCCAUGUGAGGG [Marsurpial 65% 3]”, for which the “apparent KD of MS2 coat protein” value with MS2 coat protein [1] came to 130 nM; in the series with MS2 coat protein [2] it was 69.9 nM.

With “AAGAAGUGAGGAUAUCGUUGUCGUCACAAAAGUGAUGACGACGAGAAGGCACAUGAGGAUCACCCAUGUAAAGA [Opal 28]”, the “apparent KD of MS2 coat protein” value in the series on MS2 coat protein [1] came to 37.8 nM; in the series with MS2 coat protein [2] it was 43 nM.

For “AAGAAGUGAGGAUAUGUCUGUGCGAAAAAAAAAAAGUGCAGACAGAAGGCACAUGAGGAUCACCCAUGUAAAAA [Florian 65% 2]”, the “apparent KD of MS2 coat protein” value came out at 37.5 nM in the series with MS2 coat protein [1] and 48.1 nM with MS2 coat protein [2].

For the sequence “AAGAAUCGAGGAUAUACAUGAGGAUCACCCAUGUAAAAGAAAGAAGGGAAAGAGAAAAGUAGAAGGCGAAAGAA [Menkheperre Nekau I]”, the “apparent KD of MS2 coat protein” value in the series with MS2 coat protein [1] turned out to be 22.6 nM; with MS2 coat protein [2] it was 27.7 nM.

Take “AAGAAUGGAGGAUAUACAAAAUAAAAGAAAAGAAAGAAAGAACAUGAGGAUCACCCAUGUAGAAGGCCAAAGAA [Khasekhemre Neferhotep I]”: the “apparent KD of MS2 coat protein” value with MS2 coat protein [1] came out at 33.6 nM; in the series with MS2 coat protein [2], 24.7 nM.

For “AAGAGUAGAGGAUAUACAUGAAAAGAGUCGAAAGACUCAAAACAUGAGGAUCACCCAUGUAGAAGGCUACUCAA [Hyphema Seclusion Mod 62% 3]”, the “apparent KD of MS2 coat protein” value with MS2 coat protein [1] was found to be 137 nM; with MS2 coat protein [2], 81.4 nM.

For the sequence “AAGAGUAGAGGAUAUAUAUGAAAAGAGUCGAAAGACUCAAAACAUGAGGAUCACCCAUGUAGAAGGCUACUCAA [Hyphema Seclusion mod]”, the “apparent KD of MS2 coat protein” value in the series on MS2 coat protein [1] worked out at 18.7 nM; in the series on MS2 coat protein [2], 17.5 nM.

With “AAGAUGUAAGGAUAUGCUGCUCGUCACAAAAGUGAUGAGUAGCAGAAGGUACAUGAGGAUCACCCAUGUAAAGA [JL eternac mod 10]”, the “apparent KD of MS2 coat protein” value with MS2 coat protein [1] turned out to be 31.5 nM; in the series with MS2 coat protein [2], 44 nM.
